Patent US11608374 (dated 2023)

T1: rat sclerostin (rat)
T1 chain: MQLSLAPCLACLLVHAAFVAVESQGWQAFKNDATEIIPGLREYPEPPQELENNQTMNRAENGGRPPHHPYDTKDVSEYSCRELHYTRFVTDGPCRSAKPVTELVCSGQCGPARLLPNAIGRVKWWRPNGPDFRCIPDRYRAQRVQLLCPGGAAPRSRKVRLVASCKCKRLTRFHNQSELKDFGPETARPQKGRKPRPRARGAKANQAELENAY

T2: cynomolgus sclerostin (cynomolgus monkey)
T2 chain: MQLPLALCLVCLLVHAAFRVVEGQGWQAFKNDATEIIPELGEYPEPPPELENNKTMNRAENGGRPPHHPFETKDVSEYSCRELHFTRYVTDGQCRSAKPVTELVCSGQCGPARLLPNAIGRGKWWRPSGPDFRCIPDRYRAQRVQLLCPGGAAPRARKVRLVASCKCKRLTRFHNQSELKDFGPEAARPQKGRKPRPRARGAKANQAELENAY

T3: human sclerostin (human)
T3 chain: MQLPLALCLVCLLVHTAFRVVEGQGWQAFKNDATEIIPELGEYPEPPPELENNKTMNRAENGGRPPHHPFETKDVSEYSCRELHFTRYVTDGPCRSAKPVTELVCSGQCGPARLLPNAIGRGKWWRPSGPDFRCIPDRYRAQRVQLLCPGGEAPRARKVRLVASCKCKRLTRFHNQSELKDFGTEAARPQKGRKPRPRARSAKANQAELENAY

T4: mouse sclerostin (mouse)
T4 chain: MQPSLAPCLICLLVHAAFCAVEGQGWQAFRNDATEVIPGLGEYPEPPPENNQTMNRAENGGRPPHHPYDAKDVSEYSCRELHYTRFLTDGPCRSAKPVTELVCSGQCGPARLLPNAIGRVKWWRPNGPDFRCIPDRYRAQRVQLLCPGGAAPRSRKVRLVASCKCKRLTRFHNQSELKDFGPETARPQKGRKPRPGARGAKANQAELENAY


Key:
[1] = target: T1, rat sclerostin; experiment: SPR, pH 7.4, 37C
[2] = target: T1, rat sclerostin; experiment: SPR, pH 5.8, 37C
[3] = target: T2, cynomolgus sclerostin; experiment: SPR, pH 7.4
[4] = target: T3, human sclerostin; experiment: SPR, pH 7.4
[5] = target: T4, mouse sclerostin; experiment: SPR, pH 7.4 to 5.8, 37C
[6] = target: T4, mouse sclerostin; experiment: SPR, pH 7.4, 37C
[7] = target: T3, human sclerostin; experiment: SPR, pH 7.4 to 5.8
[8] = target: T2, cynomolgus sclerostin; experiment: SPR, pH 7.4 to 5.8
[9] = target: T4, mouse sclerostin; experiment: SPR, pH 5.8, 37C

Binder | koff [3] | koff [4] | koff [5] | Kd [6] | also measured
mabA_NpH3 (antibody, V domains shown) VH: EVQLVQSGAEVKKPGASVKVSCKASGYTFTDYNMHWVRQAPGQGLEWMGEINPNSGGAGYNQKFKGRVTMTTDTSTSTAYMELRSLRSDDTAVYYCARLGYDDIYDDWYFDVWGQGTTVTVSS VL: DIQMTQSPSSLSASVGDRVTITCRASQDISNYLNWYQQKPGKAPKLLIYYHSRLLSGVPSRFSGSGSGTDFTLTISSLQPEDFATYYCHQGDTLPYTFGGGTKVEIK |  |  |  |  | Kd [1]: 0.0426 nM; Kd [2]: 0.0454 nM
amH848/abL152 (antibody, V domains shown) VH: EVQLVQSGAEVKKPGASVKVSCKASGYTFTSYNMHWVRQAPGKGLEWMGEIMPHSGRYGLKQKFKGRVTMTRDTSISTAYMELSRLRSDDTAVYYCARLEYSEIYDDWYFDVWGQGTTVTVSS VL: DIQMTQSPSSLSASVGDRVTITCRASEGIHDALAWYQQKPGKAPKLLIYWASTLESGVPSRFSGSGSGTDFTLTISSLQPEDFATYYCQQGDTLPYTFGGGTKVEIK | 0.00854 s⁻¹ | 0.00946 s⁻¹ |  |  | 
mabB_pH1 (antibody, V domains shown) VH: QVQLVQSGAEVKKPGASVKVSCKVSGFPIKHHFQHWVRQAPGKGLEWMGWSDPEIGDTEYASKFQGRVTMTEDTSTDTAYMELSSLRSEDTAVYYCATGDTTYKFDFWGQGTTVTVSS VL: DIQMTQSPSSLSASVGDRVTITCKASQDVHTAVAWYQQKPGKAPKLLIYWASTRWTGVPSRFSGSGSGTDFTLTISSLQPEDFATYYCQQYHDYPWTFGGGTKVEIK |  |  | 0.0206 s⁻¹ | 0.138 nM | 
amH852/bsH656/abL152 (antibody) chain 1: EVQLVQSGAEVKKPGASVKVSCKASGYTFTDYNMHWVRQAPGKGLEWMGEIMPHSGRYGLKQKFKGRVTMTTDTSTSTAYMELRSLRSDDTAVYYCARLEYSEIYDDWYFDVWGQGTTVTVSS chain 2: DIQMTQSPSSLSASVGDRVTITCRASEGIHDALAWYQQKPGKAPKLLIYWASTLESGVPSRFSGSGSGTDFTLTISSLQPEDFATYYCQQGDTLPYTFGGGTKVEIK chain 3: QVQLVQSGAEVKKPGASVKVSCKVSGYTLTHTFMHWVRQAPGKGLEWMGWSDPEIGDTEYASKFQGRVTMTEDTSTDTAYMELSSLRSEDTAVYYCATGDTTYKFDYWGQGTLVTVSS chain 4: DIQMTQSPSSLSASVGDRVTITCRASEGIHDALAWYQQKPGKAPKLLIYWASTLESGVPSRFSGSGSGTDFTLTISSLQPEDFATYYCQQGDTLPYTFGGGTKVEIK | 0.000405 s⁻¹ | 0.000419 s⁻¹ |  |  | koff [7]: 0.0593 s⁻¹; koff [8]: 0.116 s⁻¹
mabB//mabA_pH2 (antibody) chain 1: QVQLVQSGAEVKKPGASVKVSCKVSGFPIKDTFQHWVRQAPGKGLEWMGWSDPEIGDTEYASKFQGRVTMTEDTSTDTAYMELSSLRSEDTAVYYCATGDTTYKFDFWGQGTTVTVSS chain 2: DIQMTQSPSSLSASVGDRVTITCKASQDVHTAVAWYQQKPGKAPKLLIYWASTRWTGVPSRFSGSGSGTDFTLTISSLQPEDFATYYCQQYSDYPWTFGGGTKVEIK chain 3: EVQLVQSGAEVKKPGASVKVSCKASGYTFTDYNMHWVRQAPGQGLEWMGEINPNSGHAGYNQKFKGRVTMTTDTSTSTAYMELRSLRSDDTAVYYCARLHYDHIYDDWYFDVWGQGTTVTVSS chain 4: DIQMTQSPSSLSASVGDRVTITCRASHDISNYLNWYQQKPGKAPKLLIYYTSRLLSGVPSRFSGSGSGTDFTLTISSLQPEDFATYYCQQGDTLPYTFGGGTKVEIK |  |  | 0.0186 s⁻¹ |  | 
mabB (antibody, V domains shown) VH: QVQLVQSGAEVKKPGASVKVSCKVSGFPIKDTFQHWVRQAPGKGLEWMGWSDPEIGDTEYASKFQGRVTMTEDTSTDTAYMELSSLRSEDTAVYYCATGDTTYKFDFWGQGTTVTVSS VL: DIQMTQSPSSLSASVGDRVTITCKASQDVHTAVAWYQQKPGKAPKLLIYWASTRWTGVPSRFSGSGSGTDFTLTISSLQPEDFATYYCQQYSDYPWTFGGGTKVEIK |  |  |  | 0.0141 nM | Kd [9]: 0.26 nM

Continued, in another order:

koff [3] | koff [4] | koff [5] | Kd [6] | Binder | also measured
 |  | 0.0418 s⁻¹ | 1.73 nM | mabA_pH4 (antibody, V domains shown) VH: EVQLVQSGAEVKKPGASVKVSCKASGYTFTDYNMHWVRQAPGQGLEWMGEINPHSGHAGYNQKFKGRVTMTTDTSTSTAYMELRSLRSDDTAVYYCARLHYDDIHDDWYFDVWGQGTTVTVSS VL: DIQMTQSPSSLSASVGDRVTITCRASHDIHNYLNWYQQKPGKAPKLLIYYTSRLLSGVPSRFSGSGSGTDFTLTISSLQPEDFATYYCQQGDTLPYTFGGGTKVEIK | 
0.0107 s⁻¹ | 0.0093 s⁻¹ |  |  | bsH638/abL152 (antibody, V domains shown) VH: QVQLVQSGAEVKKPGASVKVSCKVSGYTLTHTFMHWVRQAPGKGLEWMGWSDPEIGDHEYASKFQGRVTMTEDTSTDTAYMELSSLRSEDTAVYYCATGDTTYKFDYWGQGTLVTVSS VL: DIQMTQSPSSLSASVGDRVTITCRASEGIHDALAWYQQKPGKAPKLLIYWASTLESGVPSRFSGSGSGTDFTLTISSLQPEDFATYYCQQGDTLPYTFGGGTKVEIK | 
0.0108 s⁻¹ | 0.0104 s⁻¹ |  |  | bsH656/abL152 (antibody, V domains shown) VH: QVQLVQSGAEVKKPGASVKVSCKVSGYTLTHTFMHWVRQAPGKGLEWMGWSDPEIGDTEYASKFQGRVTMTEDTSTDTAYMELSSLRSEDTAVYYCATGDTTYKFDYWGQGTLVTVSS VL: DIQMTQSPSSLSASVGDRVTITCRASEGIHDALAWYQQKPGKAPKLLIYWASTLESGVPSRFSGSGSGTDFTLTISSLQPEDFATYYCQQGDTLPYTFGGGTKVEIK | 
 |  |  | 0.589 nM | mabB_pH5 (antibody, V domains shown) VH: QVQLVQSGAEVKKPGASVKVSCKVSGFPIKHHFQHWVRQAPGKGLEWMGWSDPEIGDTEYASKFQGRVTMTEDTSTDTAYMELSSLRSEDTAVYYCATGHTTYKFDFWGQGTTVTVSS VL: DIQMTQSPSSLSASVGDRVTITCKASQDVHTAVAWYQQKPGKAPKLLIYWASTRWTGVPSRFSGSGSGTDFTLTISSLQPEDFATYYCQQYSDYHWTFGGGTKVEIK | 
 |  | 0.0347 s⁻¹ |  | mabB//mabA_pH1 (antibody) chain 1: QVQLVQSGAEVKKPGASVKVSCKVSGFPIKDTFQHWVRQAPGKGLEWMGWSDPEIGDTEYASKFQGRVTMTEDTSTDTAYMELSSLRSEDTAVYYCATGDTTYKFDFWGQGTTVTVSS chain 2: DIQMTQSPSSLSASVGDRVTITCKASQDVHTAVAWYQQKPGKAPKLLIYWASTRWTGVPSRFSGSGSGTDFTLTISSLQPEDFATYYCQQYSDYPWTFGGGTKVEIK chain 3: EVQLVQSGAEVKKPGASVKVSCKASGYTFTDYNMHWVRQAPGQGLEWMGEINPNSGHAGYNQKFKGRVTMTTDTSTSTAYMELRSLRSDDTAVYYCARLHYDDIYDDWYFDVWGQGTTVTVSS chain 4: DIQMTQSPSSLSASVGDRVTITCRASHDISNYLNWYQQKPGKAPKLLIYYTSRLLSGVPSRFSGSGSGTDFTLTISSLQPEDFATYYCQQGDTLPYTFGGGTKVEIK | 
 |  | 0.0516 s⁻¹ |  | mabB//mabA_pH3 (antibody) chain 1: QVQLVQSGAEVKKPGASVKVSCKVSGFPIKDTFQHWVRQAPGKGLEWMGWSDPEIGDTEYASKFQGRVTMTEDTSTDTAYMELSSLRSEDTAVYYCATGDTTYKFDFWGQGTTVTVSS chain 2: DIQMTQSPSSLSASVGDRVTITCKASQDVHTAVAWYQQKPGKAPKLLIYWASTRWTGVPSRFSGSGSGTDFTLTISSLQPEDFATYYCQQYSDYPWTFGGGTKVEIK chain 3: EVQLVQSGAEVKKPGASVKVSCKASGYTFTDYNMHWVRQAPGQGLEWMGEINPHSGHAGYNQKFKGRVTMTTDTSTSTAYMELRSLRSDDTAVYYCARLHYDDIHDDWYFDVWGQGTTVTVSS chain 4: DIQMTQSPSSLSASVGDRVTITCRASHDISNYLNWYQQKPGKAPKLLIYYTSRLLSGVPSRFSGSGSGTDFTLTISSLQPEDFATYYCQQGDTLPYTFGGGTKVEIK | 
 |  |  | 0.782 nM | mabB_pH4 (antibody, V domains shown) VH: QVQLVQSGAEVKKPGASVKVSCKVSGFPIKHHFQHWVRQAPGKGLEWMGWSDPEIGDTEYASKFQGRVTMTEDTSTDTAYMELSSLRSEDTAVYYCATGDTTYKFDFWGQGTTVTVSS VL: DIQMTQSPSSLSASVGDRVTITCKASQDVHTAVAWYQQKPGKAPKLLIYWASTRWTGVPSRFSGSGSGTDFTLTISSLQPEDFATYYCQQYSDYHWTFGGGTKVEIK | 
